PMC10051649, “Suramin Disturbs the Association of the N-Terminal Domain of SARS-CoV-2 Nucleocapsid Protein with RNA”

Target: SARS-CoV-2 nucleocapsid N-terminal domain (N-NTD) (SARS-CoV-2, UniProt P0DTC9 44-180)
Assay: BLI
Conditions: protein: recombinant; tags: 6xHis-SUMO removed by SUMO protease; biotinylated for BLI; 15N-labeled for NMR; single strand

Work on AUAUGGAAGAGCCCUA (ssRNA) [ssRNA-16] yielded a Kd of 8.37 µM.
